Test results: the supplement of paper PMC9170038

System: MS2 coat protein
Assay: apparent KD of MS2 coat protein; designed switch direction (-1 OFF switch, 1 ON switch): -1; higher = weaker reporter binding
Procedure, shortened: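 SNAP-549-labelled MS2 coat protein was titrated, doubling from 0.7 or 1.5 nM to 3 µM, over designed RNA switches transcribed on Illumina chips by stalled E. coli RNA polymerase. Runs were done without input, with 200 uM small-molecule ligand, or with an oligonucleotide input. Apparent KD is the per-design median over clusters of curve-fitted normalised fluorescence.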

[1] = Eterna round: R95, input ligand: microRNA oligo, concentration not stated
[2] = input ligand: microRNA oligo, concentration not stated
[3] = Eterna round: R95, input ligand: FMN 200 uM
[4] = Eterna round: R95, input ligand: none

Sequence	apparent KD of MS2 coat protein (input ligand: FMN 200 uM) [nM]	apparent KD of MS2 coat protein (input ligand: none) [nM]	apparent KD of MS2 coat protein [1] [nM]	apparent KD of MS2 coat protein [2] [nM]	apparent KD of MS2 coat protein [3] [nM]	apparent KD of MS2 coat protein [4] [nM]
CGAGCUUUUUGCUCGUCUUACAUGAGGAUCACCCAUGUCAUACAGAUAGAUAUACGAAAAGUAUAUCUAUCUGUAUG [Mod of sellena's -59.4, -80.7 kcal, A 10%] (Eterna round: R97, puzzle: Sensor, turn-off variant 1)	23.3	27.5	–	–	–	–
CGAGUGUAAGGAUAUUCGGCACUAGGGACCACCCUAGUGUAGAAGAAGGUACAUGAGGAUCACCCAUGUGGUUA [Bereisonma] (puzzle: Exclusion 4)	–	–	273	–	–	–
CGAUGCUCGAAUCCACAUGAGGAUCACCCAUGUCGAGUUAGCGAGGAUAUCGGAGACACAUAGUAUGAGAAGGCGCGAACCUGA [Ex NG3 #23] (Eterna round: R96, puzzle: Exclusion NG 3)	15.5	12.1	–	10.5	–	–
CGAUGCUCGAAUCCACAUGAGGAUCACCCAUGUCGAGUUAGCGAGGAUAUCGGUGACACAUAGUACGAGAAGGCGCGAACCUGA [Ex NG3 #25] (Eterna round: R96, puzzle: Exclusion NG 3)	50.9	34.8	–	28.3	–	–
CGAUGUUAUGUCAGGAUAUGCAUUGCGAAAGCGAUGCAGAAGGGACAUGAGGAUCACCCAUGUCCUAACCAUCG [Omei A 6] (puzzle: Brourd's mod of Exclusion 4)	–	–	11.6	–	–	–
CGAUGUUAUGUCAGGAUAUGCGUUGCGAAAGCAAUGUAGAAGGGACAUGAGGAUCACCCAUGUCCUAACCAUCG [Omei A 8] (puzzle: Brourd's mod of Exclusion 4)	–	–	13	–	15.1	13.5
CGCACACAUGAGGAUCACCCAUGUGAGGAUAUCAUGCUUCGUAGUAAACUACGAAGUGUGAGAAGGCACAUGUU [Omei Ex1 D9] (Eterna round: R97, puzzle: Exclusion 1)	144	55	–	–	–	–
CGCCUGUUAGGAUAUUAGUAGUAGUCAGAAUAGACUAUUACUGAGAAGGAACAUGAGGAUCACCCAUGUUGGCG [Eli x4 4.13] (Eterna round: R97, puzzle: Exclusion 4)	19.9	15.5	–	–	–	–
CGCGUAGGAGGAUAUAUGGCAUACAACAUGAGGAUCACCCAUGUAGUCGCACGUUGGGAUAUAGAAGGCCUGCGAA [Eternabot (L1) Solution 87] (Eterna round: R97, puzzle: Exclusion 5)	18.3	20	–	–	–	–
CGGCAAAGGAAGGAUAUGCUAGACGAUAGUCUAGCAGAAGGUCCUACAUGAGGAUCACCCAUGUGUCCUAGCCG [Mat - Exclusion 6 - Eli Mod - D9] (Eterna round: R97, puzzle: Exclusion 6)	49.6	44.3	–	–	–	–
CGGGCCCAGGCAGGAUAUGUACAGCCACAAAACCCUCGUGUGAGGGACAUGAGGAUCACCCAUGUAUAGAAGGGCCAGCGCGUA [Xeditein] (Eterna round: R96, puzzle: Exclusion NG 2)	26.3	22	–	14	–	–
CGGUACUGAGGAUAUACAUGAGGAUCACCCAUGUGUUCCAGCUAGCGUACUGGCAUUUGUAGAAGGCGGUGCUG [JL-ex3-3.22 Brourd mod] (puzzle: Exclusion 3)	–	–	16	–	–	–
CGGUGCUGAGGAUAUACAUGAGGAUCACCCAUGUGUGCCAGCUAGCUGACUGGCGCUUGUAGAAGGCAGUACUG [JL-ex3-2.12 Brourd mod] (puzzle: Exclusion 3)	–	–	11.4	–	–	–
CGGUGCUGAGGAUAUACAUGAGGAUCACCCAUGUGUUAUUGAUAGAAAACUGGCAGAUGUAGAAGGCGGUACUG [Mat - Exclusion 3 - Mod of JL D99] (puzzle: Exclusion 3)	–	–	25.4	–	80.5	24.9
CGGUGCUUCUGGAAACAUGAGGAUCACCCAUGUUGAGUUAGCGAGGAUAUCGGUAACACUUGUUAUGAGAAGGCGCGAACCAGA [Ex NG3 #35] (Eterna round: R96, puzzle: Exclusion NG 3)	13.6	19.4	–	14.6	–	–
CGGUGCUUGUGGAAACAUGAGGAUCACCCAUGUUGAGUUAGCGAGGAUAUCGGUAACACAUGUCACGAGAAGGCGCGAACCAGA [Ex NG3 #33] (Eterna round: R96, puzzle: Exclusion NG 3)	39.6	16.2	–	18.1	–	–
CGGUGUAACGUAGGAUAUCAGCGCAACUGACGAUGAGAAGGACGACAUGAGGAUCACCCAUGUGAUUUCUCAAUAUUAUACAUC [Prohibition 87 - Jieux - Exclusion NG 1] (Eterna round: R96, puzzle: Exclusion NG 1)	511	74.5	–	58.9	–	–

Sequence	apparent KD of MS2 coat protein (input ligand: FMN 200 uM) [nM]	apparent KD of MS2 coat protein (input ligand: none) [nM]	apparent KD of MS2 coat protein [1] [nM]	apparent KD of MS2 coat protein [2] [nM]	apparent KD of MS2 coat protein [3] [nM]	apparent KD of MS2 coat protein [4] [nM]
CGGUGUAGAGGAUAUACGUGAAUAUUAUUAGAUAAUAAUUUACAUGAGGAUCACCCAUGUAGAAGGCUAUAGCG [JR_Ex2_Sub083] (Eterna round: R97, puzzle: Exclusion 2)	24.9	20.1	–	–	–	–
CGUAAAAGGUAGGAUAUGCUAGACGAAAGUCUAGCAGAAGGACCUACAUGAGGAUCACCCAUGUGUCCAAUACG [Mat - Exclusion 6 - Eli Mod - D22] (Eterna round: R97, puzzle: Exclusion 6)	50.7	117	–	–	–	–
CGUACUGAAGUCAGGAUAUUGUCUCGGAUACGAAACAAGAAGGGACAUGAGGAUCACCCAUGUAGACAGUACGA [Malc #30 mod 3] (puzzle: Brourd's mod of Exclusion 4)	–	–	20.5	–	19.3	24.9
CGUAUGUCAGGAUAUCGUGCAUACAACGAAAGUUCUAUGUGCGAGAAGGGACAUGAGGAUCACCCAUGUCUUCG [Omei Ex4 A13] (Eterna round: R97, puzzle: Exclusion 4)	42.8	23.6	–	–	–	–
CGUCAAGCUUCGGCAGGCAACAUGAGGAUCACCCAUGUCUGCGUUCGUCUUAACUGAUCUAGGGAUAGAUCGUGUGU [Eternabot (L1) Solution 49] (Eterna round: R97, puzzle: Sensor, turn-off variant 1)	18.3	15.4	–	–	–	–
CGUCCUGAUGACAACUUACAUGAGGAUCACCCAUGUGCCUCGCAGGAUAUCCCAGCACGUCGCAAGGAGAAGGGCGACGCGCCA [Ceeninge] (Eterna round: R96, puzzle: Exclusion NG 3)	18	19	–	13.7	–	–
CGUCGAAAUGUAGGAUAUCUGCACGUUUAGUGCAGAGAAGGACAUGAGGAUCACCCAUGUAGAUCACGACGAAUUAAUUUAAUU [ENG1/5-C2] (Eterna round: R96, puzzle: Exclusion NG 1)	374	65.8	–	47.3	–	–
CGUCUGUAAGGAUAUGGUUGCAUCAACAUGAGGAUCACCCAUGUAACAUGGGACUAGUGAUUAGAAGGUACGAACG [EX5 #58] (Eterna round: R97, puzzle: Exclusion 5)	156	142	–	–	–	–
CGUCUGUGAGGAUAUGGUAUCGUUUACAUGAGGAUCACCCAUGUUACAUGGGACUAGAGACUAGAAGGUACUGACG [EX5 #47] (Eterna round: R97, puzzle: Exclusion 5)	628	878	–	–	–	–
CGUGACUCAGGAUAUCUAUAAUAUCACAUGAGGAUCACCCAUGUCCAGCAAUAGCUGGAGGGAGAAGGGAGUCACG [Fiskers Ex 5 - 40] (puzzle: Exclusion 5)	–	–	195	–	–	–
CGUGACUGAGGAUAUCUAUAUUAUCACAUGAGGAUCACCCAUGUCCAGCGAAAGCUGGAGGGAGAAGGCAGUCACG [Fiskers Ex 5 - 28] (puzzle: Exclusion 5)	–	–	49.8	–	17.1	32.4
CGUUCGCGUGUAGGAUAUGUGUCUGUGUCGGGCGCAGAAGGACAUGAGGAUCACCCAUGUCUGCGGGUGUGGGCGCUCUCUGCG [-29, -28 kcal A 14%] (Eterna round: R96, puzzle: Exclusion NG 1)	69.6	26.9	–	18.2	–	–
CGUUGAAUAGGAUAUACAUGAGGAUCACCCAUGUGAAAUUAUAGUGAGGAAAUGAAAAGUAGAAGGGUUUGACA [Mod of Mat 8 - Jieux - Exclusion 3] (Eterna round: R97, puzzle: Exclusion 3)	27.6	30.4	–	–	–	–
CGUUGCAGAGGAUAUACAUGAGGAUCACCCAUGUGAAAUUAUAGUGAGGAAAUGAAAAGUAGAAGGCUGUGACA [Mod of Mat 11 - Jieux - Exclusion 3] (Eterna round: R97, puzzle: Exclusion 3)	267	47.3	–	–	–	–
CGUUGGAAAGGAUAUACAUGAGGAUCACCCAUGUGAAAUUAUAGUGAGGAAAUGAAAAGUAGAAGGUUCUGACA [Mod of Mat 6 - Jieux - Exclusion 3] (Eterna round: R97, puzzle: Exclusion 3)	61.2	25	–	–	–	–
CUAAAUCAUGUAGGAUAUGCGUGGCAAAGCUAUGCAGAAGGACAUGAGGAUCACCCAUGUCAUUCCGUCUGCGUACAGACGGGA [Mat - Exclusion NG 1 - Mod of JL - D49] (Eterna round: R96, puzzle: Exclusion NG 1)	187	24.9	–	19.9	–	–
